Test system: O=CCCC=O
Assay: Alcohol dehydrogenase YqhD, coupled assay, NADPH consumption
Format: biochemical, E. coli
Conditions: other: coupled assay, substrate from 0.1-10 mM L-arabonate, 1 mM NADPH, pH 7.5, 10 nM YqhD, 30.0 °C
Method: 2-Ketoacid decarboxylase (Kivd) and alcohol dehydrogenase (YqhD): The decarboxylase activity of Kivd was measured by a coupled enzymatic assay with AraC, AraD, and YqhD (Zhang et al., 2011. ChemSusChem 4:1068-1070). Excess AraC, AraD, and YqhD was used and the oxidation of NADPH was monitored at 340 nm. The assay mixture contained 1 mM NADPH, 1 μM AraC, 1 μM AraD, and 100 nM YqhD and 0.1-10 mM L-arabonate in assay buffer (100 mM Tris-HCl buffer, pH 7.5, 5 mM MgSO4, 0.5 mM ThDP) with a total volume of 0.1 ml. The mixture was incubated at 30° C. for one hour and 10 nM Kivd was added. The dehydrogenase activity of YqhD was assayed according to NADPH initial consumption rates in a coupled assay. The assay mixture contained 1 mM NADPH, 100 nM Kivd, 1 μM AraC, 1 μM AraD, and 0.1-10 mM L-arabonate in 100 μl of 100 mM Tris-HCl buffer (pH 7.5) with 5 mM MgSO4. The mixture was first incubated at 30° C. for one hour. Afterwards, 10 nM YqhD was added and the NADPH consumption rate was monitored.

**Q.** How did the Km turn out when “E. coli alcohol dehydrogenase YqhD (Escherichia coli K-12)” was run?
**A.** Its Km is 1900 µM.

**Q.** What about the kcat of the same substance?
**A.** The kcat was 45.0 s⁻¹.

Reference: patent publication US20170137855A1, “RECOMBINANT CELLS AND METHODS FOR NONPHOSPHORYLATIVE METABOLISM” (REGENTS OF THE UNIVERSITY OF MINNESOTA, priority 2015, published 2017)
